Measurements taken from patent publication US7595173B2, “Low-cost production of peptides” (Dow Global Technologies Inc., priority 2002, dated 2009).

Test system: E. coli strain BL21 (DE3)
Experiment: Antimicrobial activity: dose-dependent inhibition of E. coli growth (standard growth inhibition assay)
Assay type: cell-based
Procedure: The antimicrobial activity of the cleaved peptides (same samples from Examples 5 and 6) was determined by measuring the dose-dependent inhibition of E. coli growth. The samples were tested for their ability to inhibit the growth of an overnight culture inoculated with E. coli strain BL21 (DE3). AMP samples were diluted serially into water in 96 well plates. Overnight cultures of E. coli BL21 (DE3) cells were diluted 1:50 into LB broth and 250 μl aliquots were transferred into 96-well plates. Each plate was incubated at 37° C. for one hour and then 50 μl of diluted peptide (or water) were added to each well. Each plate was incubated overnight at 37° C. and then the culture density was determined by measuring the apparent absorbance at 600 nm using a Spectromax Plus plate reader.

Molecule	antimicrobial activity of cleaved trimer (digested with formic acid at 60° C.)	antimicrobial activity (Ni-purified, dialyzed, uncleaved dimer)	antimicrobial activity (after 50% formic acid treatment, 70° C., 24 hours)	antimicrobial activity (water-treated (control), 70° C., 24 hours)
AB4: trimer comprising a leader segment, three AMPs each separated by a tripeptide linker, and a trailer segment (protein, Amino acid sequence of the AB4 trimer.) MASMTGGQQMGRDPFAKKFAKKFKKFAKKFAKFAFAFGDPFAKKFAKKFKKFAKKFAKFAFAFGDPFAKKFAKKFKKFAKKFAKFAFAFGDPSRRSLRKSSRNLPRSLPSSHSRSVIRIRAPSTSLRPHSSTTTTTTEIRLLTKPERKLSWLLPPLSNN	potent antimicrobial activity	–	–	–
4A dimer: dimer having two D2A21 antimicrobial peptides connected by the Gly-Asp/Pro cleavage sequence, with leader and His-tag trailer (protein, Amino acid sequence of the 4A dimer.) MASMTGGQQMGRDPFAKKFAKKFKKFAKKFAKFAFAFGDPFAKKFAKKFKKFAKKFAKFAFAFGDPNSSSVDKLAAALEHHHHHH	–	no detectable antimicrobial activity	significant antimicrobial activity	no activity
